Source: the supplement of paper PMC9170038

Test system: MS2 coat protein
Experiment: apparent KD of MS2 coat protein; designed switch direction (-1 OFF switch, 1 ON switch): -1; higher = weaker reporter binding
Method in brief: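 Designed RNA switches with common flanks were transcribed on Illumina chips by stalled E. coli RNA polymerase and titrated with SNAP-549-labelled MS2 coat protein, from 0.7 or 1.5 nM doubling to 3 µM, in Tris-HCl pH 7.5 buffer with KCl, MgCl2, BSA, DTT, tRNA and Tween-20. Steps lasted 0.8–1.5 h (lowest) to 10–20 min (highest). Titrations ran without input, with 200 uM small-molecule ligand, or with an oligonucleotide input. Normalised cluster fluorescence was curve-fitted, and apparent KD is the per-design median over clusters.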

[1] = input ligand: microRNA oligo, concentration not stated
[2] = Eterna round: R95, input ligand: FMN 200 uM
[3] = Eterna round: R95, input ligand: microRNA oligo, concentration not stated
[4] = Eterna round: R95, input ligand: none

Row | Sequence | apparent KD of MS2 coat protein (input ligand: FMN 200 uM) [nM] | apparent KD of MS2 coat protein [1] [nM] | apparent KD of MS2 coat protein (input ligand: none) [nM] | apparent KD of MS2 coat protein [3] [nM] | other results
1 | UACCUGAGGCUUUGCUUUAGGCUUACAUGAGGAUCACCCAUGUAGGAUAUGGUAGGCUUUGCUUACCAGAAGGACAUGGUAAUU [JL ENG3 1.07] (Eterna round: R96, puzzle: Exclusion NG 3) | 90.9 | 59.9 | 64.6 |  | 
2 | UACGGGUCAGGAUAUGCGAGGGAGUGGGAAAUAGGAAGGUAGCAGAAGGGACAUGAGGAUCACCCAUGUAAGGA [JR_Exclu4_Sub0100] (puzzle: Exclusion 4) |  |  |  | 31.2 | apparent KD of MS2 coat protein [2]: 38.5 nM; apparent KD of MS2 coat protein [4]: 34.6 nM
3 | UACUAAAAGGAGGAUAUCGUAUCGGAAACGAUACGAGAAGGCUUAACAUGAGGAUCACCCAUGUUCUUCAAUAU [Mat - Exclusion 6 - Eli Mod - D92] (puzzle: Exclusion 6) |  |  |  | 16 | apparent KD of MS2 coat protein [2]: 18.2 nM; apparent KD of MS2 coat protein [4]: 14.8 nM
4 | UACUACGCAGGAUAUACAUGAGGAUCACCCAUGUGUCUGCGAUAGGCACGUGAAAUCCGUAGAAGGGUGUAGAU [Exclusion 3 - Oddities v.2] (puzzle: Exclusion 3) |  |  |  | 35.9 | 
5 | UACUACGCAGGAUAUACAUGAGGAUCACCCAUGUGUCUGCGAUAGGCACGUGAUAUCCGUAGAAGGGUGUAGAU [Exclusion 3 - Oddities v.1] (puzzle: Exclusion 3) |  |  |  | 30.7 | 
6 | UACUUAUGAGUCAGGAUAUGUGAGGCGGAAGCGAUACAGAAGGGACAUGAGGAUCACCCAUGUUGGGUUCCUGU [Eternabot (Original) Solution 32] (Eterna round: R97, puzzle: Brourd's mod of Exclusion 4) | 526 |  | 83.5 |  | 
7 | UAGACCGAUGUUAGGAUAUCUGGUCGAGAAAGAAAAGAGAAGGAACAUGAGGAUCACCCAUGUACCCGGGUAAC [Laisbebi] (puzzle: Brourd's mod of Exclusion 4) |  |  |  | 16.7 | 
8 | UAGAUGGGAGGAUAUACGUAGAUACAGAUUCGUGUAGUGCUACAUGAGGAUCACCCAUGUAGAAGGCCCGUCUU [JL-ex2-2.23 Mayanne mod] (puzzle: Exclusion 2) |  |  |  | 13.1 | 
9 | UAGCAUUGCCAAAGGUAGUGCAUUACAUGAGGAUCACCCAUGUAGGAUAUGGUAGGCAAAGCUUACCAGAAGGACAUGAUAAUU [Mat - Exclusion NG 3 - Mod of JL - D16] (Eterna round: R96, puzzle: Exclusion NG 3) | 104 | 36.5 | 47.8 |  | 
10 | UAGGAGUCAGGAUAUGCGAGAGAUGGAAGUAAGGGAUGAGAGCAGAAGGGACAUGAGGAUCACCCAUGUAAGGA [JR_Exclu4_Sub091] (puzzle: Exclusion 4) |  |  |  | 37.2 | 
11 | UAGGUGUAGUUAGGAUAUCGUUGCGAUUAGCUACGAGAAGGAACACAUGAGGAUCACCCAUGUCUACUCAAGAAACGAAAGGAA [6th something] (Eterna round: R96, puzzle: Exclusion NG 1) | 29 | 22.1 | 24.9 |  | 
12 | UAGUUAAUCACAGGAUAUCGCCUCUUAUUACAUGAGGAUCACCCAUGUUUAGUUAGUUACAUGUUCGAGAAGGGUGUUGUAGUU [JR_ExcNG2_Sub042] (Eterna round: R96, puzzle: Exclusion NG 2) | 714 | 408 | 579 |  | 
13 | UAGUUAUUCACAGGAUAUCGCCUCUUAUUACAUGAGGAUCACCCAUGUUUAGUUAGUUACAUGUUCGAGAAGGGUGUAGUUGUU [JR_ExcNG2_Sub043] (Eterna round: R96, puzzle: Exclusion NG 2) |  | 290 |  |  | 
14 | UAUACACAUGAGGAUCACCCAUGUGAGGAUAUGUACAACAACAAGACGGAAAAAAAAUACAGAAGGCACAAAUA [JR_Exclusion1_Sub028] (puzzle: Exclusion 1) |  |  |  | 25.7 | apparent KD of MS2 coat protein [2]: 22.7 nM; apparent KD of MS2 coat protein [4]: 32.4 nM
15 | UAUACUAGAUAGGAUAUACUAUAUAUAUUAUUCGUAGAAGGAUCUACAUGAGGAUCACCCAUGUUAACAGCAGU [JR_E6_Sub006] (puzzle: Exclusion 6) |  |  |  | 37.2 | 
16 | UAUAUAUAGUAAGGAUAUGUAAUAAUUUUAUAAACAGAAGGUACUGACAUGAGGAUCACCCAUGUUUUAGUGUGGGCAUGUAGA [JMF's solution 30] (Eterna round: R96, puzzle: Exclusion NG 1) |  | 73.2 |  |  | 

Row | Sequence | apparent KD of MS2 coat protein (input ligand: FMN 200 uM) [nM] | apparent KD of MS2 coat protein [1] [nM] | apparent KD of MS2 coat protein (input ligand: none) [nM] | apparent KD of MS2 coat protein [3] [nM] | other results
17 | UAUAUAUAGUAAGGAUAUGUAAUUCUUUUAUAAACAGAAGGUACUGACAUGAGGAUCACCCAUGUUUUAGUGUGGGCAUGUAGA [JMF's solution 34] (Eterna round: R96, puzzle: Exclusion NG 1) |  | 53.1 |  |  | 
18 | UAUAUAUAGUAAGGAUAUGUAUAUAAUUUAUAAACAGAAGGUACUGACAUGAGGAUCACCCAUGUUUUAGUGUGGGCAUGUAGA [JMF's solution 55] (Eterna round: R96, puzzle: Exclusion NG 1) |  | 64.4 |  |  | 
19 | UAUAUAUAGUAAGGAUAUGUAUUAAUUUAAUAAACAGAAGGUACUGACAUGAGGAUCACCCAUGUUUUAGUGUGGGCAUGUAGA [JMF's solution 83] (Eterna round: R96, puzzle: Exclusion NG 1) |  | 64.3 |  |  | 
20 | UAUAUAUAGUAAGGAUAUGUAUUAAUUUGAUAAACAGAAGGUACUGACAUGAGGAUCACCCAUGUUUUAGUGUGGGCAUGUAGA [JMF's solution 84] (Eterna round: R96, puzzle: Exclusion NG 1) |  | 75.6 |  |  | 
21 | UAUAUGUGAGGAUAUCCUUUAUUAAUUAUUAUAUUAUAUAUGGAGAAGGCACAUGAGGAUCACCCAUGUUAUAU [lam1] (Eterna round: R97, puzzle: Exclusion 4) | 72.8 |  | 42.1 |  | 
22 | UAUUAAACAAGCAGAUCCCACAUGAGGAUCACCCAUGUGCUCGUCUUAUAAGGUACUGUGACGAUAGUCACGGUACC [Mat - Sensor, turn-off var - Eli Mod - D62] (Eterna round: R97, puzzle: Sensor, turn-off variant 1) | 49 |  | 54.5 |  | 
23 | UAUUAAACAAGCGGAUCCCACAUGAGGAUCACCCAUGUGCUCGUCUUAUAAGGUACUGUGACGAAAGUCACGGUACC [Sensor 3, v1 - 91 v13] (Eterna round: R97, puzzle: Sensor, turn-off variant 1) | 25 |  | 28.9 |  | 
24 | UAUUAACAAGCUAGAUCCCACAUGAGGAUCACCCAUGUGCUCGUCUUAUAAGGUACUGUGACGAAAGUCACGGUACC [Sensor 3, v1 - 78] (puzzle: Sensor v3, turn-off variant 1) |  |  |  | 188 | apparent KD of MS2 coat protein [2]: 37.8 nM; apparent KD of MS2 coat protein [4]: 32.3 nM
25 | UAUUAACAAGCUAGAUCCUACAUGAGGAUCACCCAUGUGCUCGUCUUAUAAGGUACUGUGACGAAAGUCACGGUACC [Sensor 3, v1 - 76] (puzzle: Sensor v3, turn-off variant 1) |  |  |  | 42.4 | apparent KD of MS2 coat protein [2]: 265 nM; apparent KD of MS2 coat protein [4]: 243 nM
26 | UAUUAAGCAAGCAGAUCCCACAUGAGGAUCACCCAUGUGCUCGUCUUAUAAGGUACUGUGACAAAAGUCACGGUACC [Mat - Sensor, turn-off var - Eli Mod - D74] (Eterna round: R97, puzzle: Sensor, turn-off variant 1) | 121 |  | 135 |  | 
27 | UAUUAAUGCAAGGAUAUGCUUUUAAUUUUUUUUGCAGAAGGUGCAACAUGAGGAUCACCCAUGUUUGAGGGUAU [JR_E6_Sub030] (puzzle: Exclusion 6) |  |  |  | 59 | apparent KD of MS2 coat protein [2]: 68.4 nM; apparent KD of MS2 coat protein [4]: 53.8 nM
28 | UAUUAGCAAGCAAGAUCCCACAUGAGGAUCACCCAUGUGCUCGUCGCAUCCAGAAUUACUGGGUGCGCUCGUCUUAU [Winner reversed engineered 16] (Eterna round: R97, puzzle: Sensor, turn-off variant 1) | 168 |  | 169 |  | 
29 | UAUUAGCAAGCGAGAUCCCACAUGAGGAUCACCCAUGUAAAGCAUCCAGAAUUACUGGGUGCAAAAGCUCGUCUUAU [Winner reversed engineered 6] (Eterna round: R97, puzzle: Sensor, turn-off variant 1) | 29.4 |  | 31.7 |  | 
30 | UAUUAGCAAGCGAGAUCUCACAUGAGGAUCACCCAUGUGCUCGUCUUAUAAGGUACUGUGACGAUAGUCACGGUACC [Mat - Sensor, turn-off var - Eli Mod - D38] (Eterna round: R97, puzzle: Sensor, turn-off variant 1) | 15.3 |  | 14.6 |  | 
31 | UAUUAGCAAGUAAGAUCCCACAUGAGGAUCACCCAUGUGCUCGUCUUAUAAGGUACUGUGACGAUAGUCACGGUACC [Mat - Sensor, turn-off var - Eli Mod - D44] (Eterna round: R97, puzzle: Sensor, turn-off variant 1) | 18.3 |  | 17.8 |  | 
